According to IntAct's records for PubMed 31515488:

B1: Ras-related protein Rab-39B (Homo sapiens), Q96DA2 (parent)
chain: MEAIWLYQFRLIVIGDSTVGKSCLIRRFTEGRFAQVSDPTVGVDFFSRLVEIEPGKRIKLQIWDTAGQERFRSITRAYYRNSVGGLLLFDITNRRSFQNVHEWLEETKVHVQPYQIVFVLVGHKCDLDTQRQVTRHEAEKLAAAYGMKYIETSARDAINVEKAFTDLTRDIYELVKRGEITIQEGWEGVKSGFVPNVVHSSEEVVKSERRCLC
partner: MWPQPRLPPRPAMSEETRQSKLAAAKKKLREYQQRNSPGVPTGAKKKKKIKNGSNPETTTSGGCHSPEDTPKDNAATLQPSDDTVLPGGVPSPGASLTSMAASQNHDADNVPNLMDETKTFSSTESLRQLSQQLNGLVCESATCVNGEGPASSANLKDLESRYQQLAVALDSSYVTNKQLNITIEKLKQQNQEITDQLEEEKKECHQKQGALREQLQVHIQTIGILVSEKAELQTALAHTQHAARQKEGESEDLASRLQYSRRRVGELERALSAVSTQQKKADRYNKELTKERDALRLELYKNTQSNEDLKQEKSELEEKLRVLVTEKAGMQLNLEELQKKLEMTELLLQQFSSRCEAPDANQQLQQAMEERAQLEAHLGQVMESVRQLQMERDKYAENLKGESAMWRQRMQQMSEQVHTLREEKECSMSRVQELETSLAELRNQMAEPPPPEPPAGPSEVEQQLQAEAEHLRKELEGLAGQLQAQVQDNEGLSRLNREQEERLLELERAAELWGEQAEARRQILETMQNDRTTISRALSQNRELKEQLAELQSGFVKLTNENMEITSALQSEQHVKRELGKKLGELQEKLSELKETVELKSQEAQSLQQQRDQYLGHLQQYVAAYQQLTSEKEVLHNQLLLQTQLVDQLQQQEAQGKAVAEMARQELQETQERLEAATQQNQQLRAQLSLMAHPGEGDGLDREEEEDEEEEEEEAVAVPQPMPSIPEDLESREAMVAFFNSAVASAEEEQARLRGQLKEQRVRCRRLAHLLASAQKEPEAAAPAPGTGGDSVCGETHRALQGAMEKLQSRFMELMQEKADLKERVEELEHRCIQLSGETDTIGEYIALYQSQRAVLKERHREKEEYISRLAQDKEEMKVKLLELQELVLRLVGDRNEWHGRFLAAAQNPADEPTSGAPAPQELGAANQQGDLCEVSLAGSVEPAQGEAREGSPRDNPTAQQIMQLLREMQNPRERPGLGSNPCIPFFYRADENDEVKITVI
B2: Baculoviral IAP repeat-containing protein 7 (Homo sapiens), Q96CA5 (parent)
chain: MGPKDSAKCLHRGPQPSHWAAGDGPTQERCGPRSLGSPVLGLDTCRAWDHVDGQILGQLRPLTEEEEEEGAGATLSRGPAFPGMGSEELRLASFYDWPLTAEVPPELLAAAGFFHTGHQDKVRCFFCYGGLQSWKRGDDPWTEHAKWFPSCQFLLRSKGRDFVHSVQETHSQLLGSWDPWEEPEDAAPVAPSVPASGYPELPTPRREVQSESAQEPGGVSPAEAQRAWWVLEPPGARDVEAQLRRLQEERTCKVCLDRAVSIVFVPCGHLVCAECAPGLQLCPICRAPVRSRVRTFLS
partner: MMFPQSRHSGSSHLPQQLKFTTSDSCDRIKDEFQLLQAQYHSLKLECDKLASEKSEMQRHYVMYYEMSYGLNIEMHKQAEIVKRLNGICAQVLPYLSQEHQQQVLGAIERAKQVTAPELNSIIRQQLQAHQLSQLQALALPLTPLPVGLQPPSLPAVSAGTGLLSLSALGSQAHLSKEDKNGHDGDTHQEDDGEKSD
B3: UBX domain-containing protein 6 (Homo sapiens), Q9BZV1 (parent)
chain: MKKFFQEFKADIKFKSAGPGQKLKESVGEKAHKEKPNQPAPRPPRQGPTNEAQMAAAAALARLEQKQSRAWGPTSQDTIRNQVRKELQAEATVSGSPEAPGTNVVSEPREEGSAHLAVPGVYFTCPLTGATLRKDQRDACIKEAILLHFSTDPVAASIMKIYTFNKDQDRVKLGVDTIAKYLDNIHLHPEEEKYRKIKLQNKVFQERINCLEGTHEFFEAIGFQKVLLPAQDQEDPEEFYVLSETTLAQPQSLERHKEQLLAAEPVRAKLDRQRRVFQPSPLASQFELPGDFFNLTAEEIKREQRLRSEAVERLSVLRTKAMREKEEQRGLRKYNYTLLRVRLPDGCLLQGTFYARERLGAVYGFVREALQSDWLPFELLASGGQKLSEDENLALNECGLVPSALLTFSWDMAVLEDIKAAGAEPDSILKPELLSAIEKLL
partner: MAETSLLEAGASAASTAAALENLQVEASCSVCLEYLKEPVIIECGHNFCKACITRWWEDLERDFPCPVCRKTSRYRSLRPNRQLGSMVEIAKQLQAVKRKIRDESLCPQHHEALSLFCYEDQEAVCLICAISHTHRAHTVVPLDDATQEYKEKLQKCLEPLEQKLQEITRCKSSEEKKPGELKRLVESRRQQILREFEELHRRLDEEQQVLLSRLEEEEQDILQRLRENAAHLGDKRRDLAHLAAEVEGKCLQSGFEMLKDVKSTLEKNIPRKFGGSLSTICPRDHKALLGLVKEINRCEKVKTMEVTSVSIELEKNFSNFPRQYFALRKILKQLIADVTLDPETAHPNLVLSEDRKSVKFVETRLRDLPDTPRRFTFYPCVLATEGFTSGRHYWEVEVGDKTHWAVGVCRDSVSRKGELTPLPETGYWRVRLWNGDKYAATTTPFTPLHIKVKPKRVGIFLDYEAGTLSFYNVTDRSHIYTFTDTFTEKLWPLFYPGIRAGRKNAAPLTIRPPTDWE
B4: Zinc finger and BTB domain-containing protein 9 (Homo sapiens), Q96C00 (parent)
chain: METPTPLPPVPASPTCNPAPRTIQIEFPQHSSSLLESLNRHRLEGKFCDVSLLVQGRELRAHKAVLAAASPYFHDKLLLGDAPRLTLPSVIEADAFEGLLQLIYSGRLRLPLDALPAHLLVASGLQMWQVVDQCSEILRELETSGGGISARGGNSYHALLSTTSSTGGWCIRSSPFQTPVQSSASTESPASTESPVGGEGSELGEVLQIQVEEEEEEEEDDDDEDQGSATLSQTPQPQRVSGVFPRPHGPHPLPMTATPRKLPEGESAPLELPAPPALPPKIFYIKQEPFEPKEEISGSGTQPGGAKEETKVFSGGDTEGNGELGFLLPSGPGPTSGGGGPSWKPVDLHGNEILSGGGGPGGAGQAVHGPVKLGGTPPADGKRFGCLCGKRFAVKPKRDRHIMLTFSLRPFGCGICNKRFKLKHHLTEHMKTHAGALHACPHCGRRFRVHACFLRHRDLCKGQGWATAHWTYK
partner: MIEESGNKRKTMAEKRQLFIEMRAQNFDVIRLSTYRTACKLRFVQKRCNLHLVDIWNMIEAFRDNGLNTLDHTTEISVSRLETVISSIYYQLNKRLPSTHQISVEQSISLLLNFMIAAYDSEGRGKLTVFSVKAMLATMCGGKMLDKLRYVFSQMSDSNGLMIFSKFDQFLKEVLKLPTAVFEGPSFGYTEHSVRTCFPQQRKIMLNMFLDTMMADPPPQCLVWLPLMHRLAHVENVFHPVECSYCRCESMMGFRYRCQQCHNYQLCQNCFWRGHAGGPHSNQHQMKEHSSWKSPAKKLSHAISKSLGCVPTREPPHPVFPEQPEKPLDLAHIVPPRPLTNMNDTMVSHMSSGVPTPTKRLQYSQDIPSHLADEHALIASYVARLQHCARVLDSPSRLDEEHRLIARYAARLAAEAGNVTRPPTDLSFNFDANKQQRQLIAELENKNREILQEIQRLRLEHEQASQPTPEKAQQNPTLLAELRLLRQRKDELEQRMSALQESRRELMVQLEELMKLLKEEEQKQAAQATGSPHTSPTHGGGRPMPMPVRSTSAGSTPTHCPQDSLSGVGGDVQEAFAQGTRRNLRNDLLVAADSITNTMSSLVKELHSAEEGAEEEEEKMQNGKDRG
B5: Alpha-ketoglutarate-dependent dioxygenase alkB homolog 4 (Homo sapiens), Q9NXW9 (parent)
chain: MAAAAAETPEVLRECGCKGIRTCLICERQRGSDPPWELPPAKTYRFIYCSDTGWAVGTEESDFEGWAFPFPGVMLIEDFVTREEEAELVRLMDRDPWKLSQSGRRKQDYGPKVNFRKQKLKTEGFCGLPSFSREVVRRMGLYPGLEGFRPVEQCNLDYCPERGSAIDPHLDDAWLWGERLVSLNLLSPTVLSMCREAPGSLLLCSAPSAAPEALVDSVIAPSRSVLCQEVEVAIPLPARSLLVLTGAARHQWKHAIHRRHIEARRVCVTFRELSAEFGPGGRQQELGQELLRIALSFQGRPV
B6: Cyclin-dependent kinase 4 inhibitor C (Homo sapiens), P42773 (parent)
chain: MAEPWGNELASAAARGDLEQLTSLLQNNVNVNAQNGFGRTALQVMKLGNPEIARRLLLRGANPDLKDRTGFAVIHDAARAGFLDTLQTLLEFQADVNIEDNEGNLPLHLAAKEGHLRVVEFLVKHTASNVGHRNHKGDTACDLARLYGRNEVVSLMQANGAGGATNLQ

Variants of: B1
Conditions: with goga2_human GOLGA2, Q08379
R177S was tested, and the “effect of a mutation on the interaction” value was “with no effect”.

Variants of: B2
Conditions: with tle5_human TLE5, Q08117
For H164R, the “effect of a mutation on the interaction” value was “with no effect”.

Variants of: B2
Conditions: with tle5_human TLE5, Q08117
Remark: another data set of the same source
With H164R the “effect of a mutation on the interaction” value was “with no effect”.

Variants of: B3
Conditions: with tri39_human TRIM39, Q9HCM9
In the case of A361V, the “effect of a mutation on the interaction” value is reported as “with no effect”.

Variants of: B4
Conditions: with dtnb_human DTNB
With S173C the “effect of a mutation on the interaction” value was “with no effect”.

Variants of: B5
Conditions: with dtx2_human DTX2, Q86UW9
dtx2_human DTX2, Q86UW9, sequence (Q86UW9 whole entry): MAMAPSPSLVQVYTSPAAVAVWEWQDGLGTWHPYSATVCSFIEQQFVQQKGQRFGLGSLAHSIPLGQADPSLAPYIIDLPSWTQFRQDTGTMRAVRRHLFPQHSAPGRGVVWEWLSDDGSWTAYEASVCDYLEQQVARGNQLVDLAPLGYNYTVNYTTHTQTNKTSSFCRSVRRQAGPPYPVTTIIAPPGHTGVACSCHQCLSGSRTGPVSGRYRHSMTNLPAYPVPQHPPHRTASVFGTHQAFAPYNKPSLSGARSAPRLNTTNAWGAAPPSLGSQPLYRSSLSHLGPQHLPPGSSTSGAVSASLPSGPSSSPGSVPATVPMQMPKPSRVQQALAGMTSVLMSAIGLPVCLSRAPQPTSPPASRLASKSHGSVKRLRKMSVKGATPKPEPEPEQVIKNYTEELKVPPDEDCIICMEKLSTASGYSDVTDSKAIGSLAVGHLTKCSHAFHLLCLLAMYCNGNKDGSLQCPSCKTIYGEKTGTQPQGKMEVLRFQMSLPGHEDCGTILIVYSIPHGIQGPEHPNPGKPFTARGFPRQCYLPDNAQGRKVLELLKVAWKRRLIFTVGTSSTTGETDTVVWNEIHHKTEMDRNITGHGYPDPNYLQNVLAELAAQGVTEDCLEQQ
R239C was tested, and the “effect of a mutation on the interaction” value was “with no effect”.

Variants of: B6
Conditions: with cdk6_human CDK6, Q00534
cdk6_human CDK6, Q00534, sequence (Q00534 whole entry): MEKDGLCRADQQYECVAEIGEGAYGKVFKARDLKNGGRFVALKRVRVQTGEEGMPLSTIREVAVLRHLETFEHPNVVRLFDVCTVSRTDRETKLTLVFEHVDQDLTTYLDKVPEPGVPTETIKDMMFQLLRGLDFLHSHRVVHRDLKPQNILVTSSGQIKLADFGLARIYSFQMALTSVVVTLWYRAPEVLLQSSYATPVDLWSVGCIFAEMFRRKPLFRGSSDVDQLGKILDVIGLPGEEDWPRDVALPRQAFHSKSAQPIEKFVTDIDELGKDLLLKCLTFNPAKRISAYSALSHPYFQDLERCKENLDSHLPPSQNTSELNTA
For R133Q, the “effect of a mutation on the interaction” value was “with no effect”.
R117Q was tested, and the “effect of a mutation on the interaction” value was “with no effect”.
In the case of T69A, the “effect of a mutation on the interaction” value is reported as “with no effect”.

Variants of: B6
Conditions: with cdk4_human CDK4, P11802
In the case of T69A, the “effect of a mutation on the interaction” value is reported as “with no effect”.

Variants of: B6
Conditions: with itf2_human TCF4, P15884
itf2_human TCF4, P15884, sequence (P15884 whole entry): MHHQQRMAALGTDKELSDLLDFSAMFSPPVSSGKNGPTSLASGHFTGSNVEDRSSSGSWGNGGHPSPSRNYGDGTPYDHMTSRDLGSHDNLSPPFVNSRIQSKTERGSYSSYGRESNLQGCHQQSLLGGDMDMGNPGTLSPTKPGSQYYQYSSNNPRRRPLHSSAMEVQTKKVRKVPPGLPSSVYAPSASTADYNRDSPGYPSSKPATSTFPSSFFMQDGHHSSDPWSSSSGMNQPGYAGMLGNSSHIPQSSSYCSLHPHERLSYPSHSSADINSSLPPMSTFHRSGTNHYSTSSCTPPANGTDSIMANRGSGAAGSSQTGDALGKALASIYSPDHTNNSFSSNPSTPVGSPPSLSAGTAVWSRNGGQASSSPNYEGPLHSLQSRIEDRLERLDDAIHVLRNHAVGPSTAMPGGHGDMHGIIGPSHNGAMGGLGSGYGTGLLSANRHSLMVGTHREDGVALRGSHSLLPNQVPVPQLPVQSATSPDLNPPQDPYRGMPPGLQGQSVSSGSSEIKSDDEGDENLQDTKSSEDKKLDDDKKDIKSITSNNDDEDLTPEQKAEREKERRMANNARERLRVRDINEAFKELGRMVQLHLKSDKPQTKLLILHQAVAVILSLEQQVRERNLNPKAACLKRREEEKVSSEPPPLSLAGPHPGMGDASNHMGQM
With T69A the “effect of a mutation on the interaction” value was “with no effect”.
